For series [1] the following is noted: in vivo; cited from earlier work.
Series [2] deals with SSTR-positive CA20948 pancreas tumors. The series is described as follows: Organ distribution study in CA 20948 tumor-bearing Lewis rats. To be noted: rat, in vivo. As to the method: As explained in more detail below, PNA peptide conjugates were synthesized by means of Boc chemistry.
Organ distribution studies of the conjugate were carried out with tumor-bearing rats. […] The tumor cells are thawed, washed with PBS and suspended carefully. The cell suspension was transplanted subcutaneously into the flank of male Lewis rats (220-250 g) (about 2×10^6 cells in 0.1 ml). […] After 1 hour, the animals were killed and dissected. Various organs/tissue samples (tumor, blood, heart, lung, liver, stomach, kidney, spleen, muscle) were removed, weighed and the activity in the gamma counter was determined. In this way, % ID/g values could be obtained. The competitive uptake could be examined by injection of 100 μg octreotide, 30 min. prior to the application of the radioactive octreotide derivative.

SMILES strings stand for the structures.

As to `C[C@@H](O)[C@@H]1NC(=O)[C@H](CCCCN)NC(=O)[C@@H](Cc2c[nH]c3ccccc23)NC(=O)[C@H](Cc2ccccc2)NC(=O)[C@@H](NC(=O)[C@H](N)Cc2ccccc2)CSSC[C@@H](C(=O)N[C@H](CO)[C@@H](C)O)NC1=O` [Octreotide], the biological half-life entry in series [1] is “about 90 min”.

`Cc1cn(CC(=O)N(CCNC(=O)CN(CCNC(=O)CN(CCNC(=O)CN(CCNC(=O)CN(CCNC(=O)CN(CCNC(=O)CN(CCNC(=O)CN(CCNC(=O)CN(CCNC(=O)CN(CCNC(=O)CN(CCNC(=O)CN(CCNC(=O)[C@@H](N)Cc2ccc(O)c(I)c2)C(=O)Cn2cnc3c(N)ncnc32)C(=O)Cn2cnc3c(=O)[nH]c(N)nc32)C(=O)Cn2ccc(N)nc2=O)C(=O)Cn2cnc3c(=O)[nH]c(N)nc32)C(=O)Cn2cc(C)c(=O)[nH]c2=O)C(=O)Cn2cnc3c(=O)[nH]c(N)nc32)C(=O)Cn2ccc(N)nc2=O)C(=O)Cn2cnc3c(=O)[nH]c(N)nc32)C(=O)Cn2ccc(N)nc2=O)C(=O)Cn2ccc(N)nc2=O)C(=O)Cn2cnc3c(N)ncnc32)CC(=O)NCCN(CC(=O)NCCN(CC(=O)NCCN(CC(=O)N[C@H](Cc2ccccc2)C(=O)N[C@H]2CSSC[C@@H](C(=O)N[C@H](C(=O)O)[C@@H](C)O)NC(=O)[C@H]([C@@H](C)O)NC(=O)[C@H](CCCCN)NC(=O)[C@@H](Cc3c[nH]c4ccccc34)NC(=O)[C@H](Cc3ccccc3)NC2=O)C(=O)Cn2ccc(N)nc2=O)C(=O)Cn2ccc(N)nc2=O)C(=O)Cn2ccc(N)nc2=O)c(=O)[nH]c1=O` [PNA conjugate]: in series [2], the “organ distribution compared with 3-Tyr octreotide (in words)” value was “approximately the same concentration in tumor and pancreas”; the “uptake into the tumor tissue (in words)” value is given as “selective uptake, which could be inhibited with an excess of octreotide”.
